Laboratory results published in the Immune Epitope Database (IEDB).
Blank lines part the entries; values can stand above or below the sequence they belong to.

Columns and labels:
HLA-A*02:01 [1] = test: IEDB peptide-MHC binding, purified MHC/competitive/radioactivity; filed as Kd, often an IC50 or EC50 that approximates it; ≥ and ≤ were set here for values at or beyond the usual limits of such assays
HLA-B*40:01 = test: as above; details: source organism: Dengue virus 2 Jamaica/1409/1983
HLA-B*44:02 = test: as above
HLA-B*44:03 = test: as above
HLA-A*02:01 [2] = test: IEDB peptide-MHC binding, purified MHC/competitive/fluorescence; filed as Kd, often an IC50 or EC50 that approximates it; ≥ and ≤ were set here for values at or beyond the usual limits of such assays; details: source organism: Variola major virus
HLA-A*02:02 = test: IEDB peptide-MHC binding, purified MHC/competitive/radioactivity; filed as Kd, often an IC50 or EC50 that approximates it; ≥ and ≤ were set here for values at or beyond the usual limits of such assays
HLA-A*02:03 = test: as above
HLA-A*02:06 = test: as above
HLA-A*68:02 = test: as above
HLA-A*26:01 = test: as above
HLA-A*01:01 = test: as above
HLA-A*29:02 = test: as above
HLA-A*30:01 = test: as above
HLA-A*30:02 = test: as above
HLA-A*32:01 = test: as above
HLA-B*39:01 = test: IEDB peptide-MHC binding, purified MHC/competitive/fluorescence; filed as Kd, often an IC50 or EC50 that approximates it; ≥ and ≤ were set here for values at or beyond the usual limits of such assays; details: source organism: Escherichia coli
HLA-B*51:01 = test: as above; details: source organism: Bacillus anthracis str. A0442
[3] = source organism: Dengue virus 2 Jamaica/1409/1983
[4] = source organism: Dengue virus 4 Philippines/H241/1956
[5] = source organism: Vaccinia virus WR
[6] = source organism: Dengue virus 3 Martinique/1243/1999
[7] = source organism: Trypanosoma cruzi
[8] = source organism: Mammarenavirus choriomeningitidis
[9] = source organism: Mammarenavirus brazilense

Sequence: AAGLQDCTM
Kd (HLA-A*02:01 [1]; source organism: Hepatitis C virus (isolate 1)): ≥ 50000 nM

Sequence: AEAIFKLTYQ
Kd (HLA-B*40:01): 1430 nM
Kd (HLA-B*44:02; [3]): 200 nM
Kd (HLA-B*44:03; [3]): 267 nM

Sequence: AGADTSEVHW
Kd (HLA-B*44:02; [4]): 4920 nM

Sequence: AMHDKKIDIL
Kd (HLA-A*02:01 [2]): 222 nM
Kd (HLA-A*02:02; [5]): 387 nM
Kd (HLA-A*02:03; [5]): 1180 nM
Kd (HLA-A*02:06; [5]): ≥ 69800 nM

Sequence: ATMANEMGFL
Kd (HLA-A*68:02; [3]): 68.4 nM

Sequence: AVWDQYKDL
Kd (HLA-A*02:01 [1]; source organism: Lassa virus Josiah): 12500 nM

Sequence: DTAWDFGSV
Kd (HLA-A*26:01; [6]): 172 nM
Kd (HLA-A*68:02; [6]): 1.5 nM

Sequence: DVSRPTTVM
Kd (HLA-A*02:01 [1]; [7]): ≥ 69400 nM
Kd (HLA-A*02:02; [7]): ≥ 33600 nM
Kd (HLA-A*02:03; [7]): 15400 nM
Kd (HLA-A*02:06; [7]): 15000 nM
Kd (HLA-A*68:02; [7]): 1010 nM

Sequence: EENMEVEIW
Kd (HLA-B*44:02; [4]): 23.4 nM
Kd (HLA-B*44:03; [4]): 81.5 nM

Sequence: EIFSMMVSSF
Kd (HLA-A*01:01; [8]): 7590 nM
Kd (HLA-A*26:01; [8]): 3.79 nM
Kd (HLA-A*29:02; [8]): 1370 nM
Kd (HLA-A*30:01; [8]): 940 nM
Kd (HLA-A*30:02; [8]): 13200 nM
Kd (HLA-A*32:01; [8]): 1290 nM

Kd (HLA-A*02:01 [1]; source organism: Homo sapiens): ≥ 20800 nM
Kd (HLA-A*02:03; source organism: Homo sapiens): 81.3 nM
Kd (HLA-A*68:02; source organism: Homo sapiens): 284 nM
Sequence: EMKTQLEEL

Kd (HLA-A*02:06; source organism: Homo sapiens): ≥ 68500 nM
Kd (HLA-A*68:02; source organism: Homo sapiens): 456 nM
Sequence: EMREQHDAQV

Kd (HLA-B*39:01): 824 nM
Sequence: ENARLRALL

Sequence: EPINMFLFI
Kd (HLA-B*51:01): 465 nM

Sequence: ESAQPGLLSY
Kd (HLA-A*01:01; [9]): 69.8 nM
Kd (HLA-A*26:01; [9]): 14.3 nM
Kd (HLA-A*29:02; [9]): 3090 nM
Kd (HLA-A*30:01; [9]): ≥ 70400 nM
Kd (HLA-A*30:02; [9]): 1690 nM
Kd (HLA-A*32:01; [9]): ≥ 69900 nM
